Measurements reported in patent US20100159527, “Polypeptides Having Nucleic Acid Binding Activity and Compositions and Methods For Nucleic Acid Amplification” (LIFE TECHNOLOGIES CORPORATION, published 2010).

Key:
Pae3192 [1] = target: T1, Pae3192 (Pyrobaculum aerophilum); experiment: EMSA; 150 nM duplex, 0-12 uM protein; 170 mM NaCl, 1 mM CaCl2, 25 mM Tris pH 8.0, 40 C, 1% agarose; conditions: tags: expressed from pET16b with N-terminal 10xHis and Factor Xa site
T1 chain: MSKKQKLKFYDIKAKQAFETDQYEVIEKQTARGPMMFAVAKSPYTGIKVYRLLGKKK
Description: (§1) Gel-shift experiments were carried out using 150 nM 42-mer duplex and separate experiments were performed with 0, 1.5, 3, 6 or 12 uM Pae3192 protein. A DNA:DNA duplex was created by annealing DNA oligonucleotides 1a and 2a of Table 1 below. An RNA:RNA duplex was created by annealing RNA oligonucleotides 1b and 2b of Table 1 below. A DNA:RNA duplex was created by annealing DNA oligonucleotide 1a to RNA oligonucleotide 2b of Table 1 below. DNA binding reactions contained 170 mM NaCl, 1 mM CaCl₂ and 25 mM Tris, pH 8.0. Pae3192 was incubated separately with each of the three duplexes for 15 minutes at 40° C. before being run on a 1% agarose gel.

Pae3192 [2] = target: T1, Pae3192; experiment: EMSA; not shifted up to 12 uM protein; 170 mM NaCl, 1 mM CaCl2, 25 mM Tris pH 8.0, 40 C, RNasin Plus; conditions: tags: expressed from pET16b with N-terminal 10xHis and Factor Xa site
Description: as §1

B1: 42-mer DNA:DNA duplex (oligos 1a+2a) (dsDNA)
DNA 1: CAGACTGGAATTCAAGCGCGAGCTCGAATAAGAGCTACTGTT
DNA 2: AACAGTAGCTCTTATTCGAGCTCGCGCTTGAATTCCAGTCTG
- binding result (Pae3192 [1]): binds

B2: 42-mer DNA:RNA duplex (oligos 1a+2b) (DNA:RNA)
DNA: B1 DNA 1
RNA: AACAGUAGCUCUUAUUCGAGCUCGCGCUUGAAUUCCAGUCUG
- binding result (Pae3192 [1]): binds

B3: 42-mer RNA:RNA duplex (oligos 1b+2b) (dsRNA)
RNA 1: CAGACUGGAAUUCAAGCGCGAGCUCGAAUAAGAGCUACUGUU
RNA 2: B2 RNA
- binding result (Pae3192 [2]): no binding
